Changes are numbered by the printed parent chain.
B1: ADI-25577 (antibody, V domains shown)
VH: QVTLKESGGGLVKPGGSLRLSCAASGFTFSSYSMNWVRQAPGKGLEWVSSISSSSSYIYYADSVKGRFTISRDNAKNSLYLQMNSLRAEDTAVYYCARYSSSLGAFDIWGQGTMVTVSS
VL: QSALTQPPSVSGAPGQRVTISCTGSSSNIGAGYDVHWYQQLPGTAPKLLIYGNSNRPSGVPDRFSGSKSGTSASLAITGLQAEDEADYYCQSYDSSLSDVFGTGTKLTVL
notes: full-length IgG
B2: ADI-19493 (antibody, V domains shown)
VH: QVQLQQWGAGLLKPSETLSLTCAVYGGSFSGYYWSWIRQPPGKGLEWIGEINHSGSTNYNPSLKSRVTISVDTSKNQFSLKLSSVTAADTAVYYCARLIENTRVGEYYFDYWGQGTLVTVSS
VL: not shown
notes: full-length IgG
B3: ADI-19467 (antibody, V domains shown)
VH: EVQLVESGGGLVKPGGSLRLSCAASGFTFSSYSMNWVRQAPGKGLEWVSSISSSSSYIYYADSVKGRFTISRDNAKNSLYLQMNSLRAEDTAVYYCASLSSSSELGYYFDYWGQGTLVTVSS
VL: QPVLTQPPSVSGAPGQRVTISCTGSSSNIGAGYDVHWYQQLPGTAPKLLIYGNSNRPSGVPDRFSGSKSGTSASLAITGLQAEDEADYYCQSYDSSLSGYVFGTGTKLTVL
notes: full-length IgG
B4: ADI-25565 (antibody, V domains shown)
VH: EVQLVESGGGLVKPGGSLRLSCAASGFTFSSYSMNWVRQAPGKGLEWVSSISSSSSYIYYADSVKGRFTISRDNAKNSLYLQMNSLRAEDTAVYYCARIRFDYGSGSYAFDIWGQGTMVTVSS
VL: B3 VL with Y100S, T104G
notes: full-length IgG
B5: ADI-25559 (antibody, V domains shown)
VH: EVQLLESGGGLVKPGGSLRLSCAASGFTFSSYSMNWVRQAPGKGLEWVSSISSSSSYIYYADSVKGRFTISRDNAKNSLYLQMNSLRAEDTAVYYCARDAAAKYYFDYWGQGTLVTVSS
VL: B3 VL with Y100K
notes: full-length IgG
B6: ADI-14366 (antibody, V domains shown)
VH: QVQLVQSGTEVKKPGASVKVSCKASGYTFNMYGVSWVRQAPGQGLEWMGWISAYNGNTNYAQKFQGRVTMTIDTSTTTAYMELRSLRSDDTAMYYCARDFQAEEPLSNWFDPWGQGTLVTVSS
VL: DIVMTQTPSSLSASVGDRVIITCRASQSISRYINWYQKKPGKAPKFLIYAVSSLGSGVPSRFSGSGSGTDFTLTISSLQPEDFATYYCQQSYSTPFTFGPGTKVDIK
notes: full-length IgG; also called Ab 34
B7: ADI-14392 (antibody, V domains shown)
VH: EVQLLESGAEVKKPGSSVKVSCKASGGTFSSYGISWVRQAPGQGLEWMGGIIPIFGTSNYAQKFQGRVTITADESTSTAYMELSSLRSEDTAVYYCALDSSGRARYYAMDVWGQGTTVTVSS
VL: DIQVTQSPATLSLSPGERATLSCRASQSVSSYLAWYQQKPGQAPRLLIYDASNRATGIPARFSGSGSGTDFTLTISSLEPEDFAVYYCQQRNNWPPTFGPGTKVEIK
notes: full-length IgG; also called Ab 59
B8: ADI-14419 (antibody, V domains shown)
VH: EVQLVESGGGVVQPGGSLRLSCAASGFSFSDYGMHWVRQAPGKGLEWVSFIRYDASYKFYADSVKGRFTISRDNAKNTLYLQINSLRAEDTAVYYCAKEIYGSGSYYYYYYAIDVWGQGTTVTVSS
VL: EIVLTQSPGTLSLSPGERATLSCRASQSVSSSHLAWYQQKPGQAPRLLIYGASSRATGIPDRFSGSGSGTDFTLTISRLEPEDFAVYYCQQYFRSAWAFGQGTKVDIK
notes: also called Ab 85
B9: ADI-21060 (antibody, V domains shown)
VH: EVQLVESGGGLVKPGGSLRLSCEASGFRLSDYYMTWIRQAPGKGLECISYISGGSTFKSYSDSVKGRFTISRDNTNLYLQMNSLRVEDTAVYYCARAPYLIYYMDVWGKGTTVTVSS
VL: QPVLTQPPSVSGAPGQRVSISCTGSNSNIGAGYDVHWYQQLPGTPPKLLIYDNNNRPSGVPDRFSGSKSGTSASLAITGLQAEDEADYYCQSYDNRLSGSQVLFGGGTKVTVL
B10: ADI-21048 (antibody, V domains shown)
VH: EVQLVESGAEVKKPGASVKVSCKASGYTFSSHAISWVRQAPGHGLEWMGWISVFNGNTNYAQKFQGRVTMTTDTSTSTAYMELRSLRSDDAAVYYCAREVIGVGEFYFDYWGQGTLVTVSS
VL: QSVLTQPPSVSVAPGQTARITCGGNNIGSKSVHWYQQKAGQAPVLVVYDDSDRPSGIPERFLGSNSGNTATLTISRVEAGDEADYYCQVWDSSGDFHVFGTGTKVTVL
B11: ADI-20994 (antibody, V domains shown)
VH: QVQLVQSGAEVKKPGASVKVSCKASGYTFSSNVIGWVRQAPGQGLEWMGWISTNNGNTKYGQKFQGRVTMTTDPSTSTAYMELRSLRSDDTAFYYCARESLGMGGFYFDYWGQGTLVTVSS
VL: QPVLTQPPSVSVAPGQTARITCGGDNIGSKSVHWYQQKPGQAPVLVVYDDSDRPSGIPERFSGSNSGNTASLTISRVEAGDEADYCCQVWDSGSDLWVFG
B12: ADI-21009 (antibody, V domains shown)
VH: QVQLVQSGAEMKTPGASVKVSCKASGYSFSNYGFTWVRQAPGQGLEWMGWISGYSAKTNYAQDLQGRVTMTIDTSTSTSYMELRSLRSDDTAVYYCARDPLGYFGSGTYRGGAFDFWGQGTTVTVSS
VL: QSALTQPASVSGSPGQSITLSCTGTNNDVGSYHLVSWYQQYPGKAPKLVIYEVTKRPSGVSNRFSGSKSGNTASLTISGLQPEDEADYYCCSYAGDRRIFGGGTKVTVL
notes: also called Ab 260
B13: ADI-14394 (antibody, V domains shown)
VH: EVQLLESGGGLVKPGGSLRLSCAASGFTFSSYSMNWVRQAPGKGLEWVSSISSSSSYIYYADSVKGRFTISRDNAKNSLYLQMNSLRAEDTAVYYCARGSEYYFDYWGQGTLVTVSS
VL: B1 VL with A3V, D99V, T103G, L107V
notes: also called Ab 61
B14: ADI-21035 (antibody, V domains shown)
VH: EVQLVESGHEVKKPGASVKVSCKASGYTFPSYGISWVRQAPGQGLEWMGWIVPYNGNTKYAQRFQGRITMTTDSPTSTASMELRGLRSDDTAVYYCARVFGDGYSYGYEYWGQGTLVTVSS
VL: DIVLTQSPSTLSASVGDRVTITCRASQSISIWLAWYQQKPGKAPKLLIYKTSELVSGVPSRFSGSGSGTEFTLTISGLQPDDFATYYCQQGNSYSHTFGQGTKVEIK
B15: ADI-20965 (antibody, V domains shown)
VH: QVQLVQSGAEVKKPGASVKVSCKASGYNFTNYGISWVRQAPGQGLEWMGWISTSNGNTHYAQKSQGRITLTTDTSTNTAYMEVRSLRSDDTAVYYCAREGPESTYDWYHFDSWGQGTLVTVSS
VL: QSVVTQPPSVSVAPGQTAKITCGGNNIGSKTVHWYQLKAGQAPVLVVYDDSDRPSGIPERFSGSNSGNTATLTIRRVEAGDEADYFCQVWESASDHWVFGGGTKLTVL
B16: ADI-14575 (antibody, V domains shown)
VH: QVQLVQSGAEVKKPGSSVKVSCKASGGTFSSYTISWVRQAPGQGLEWMGRIIPILGIANYAQKFQGRVTITADKSTSTAYMELSSLRSEDTAVYYCARPSSSSFAFDYWGQGTLVTVSS
VL: QSVLTQPASVSGSPGQSITISCTGTSSDVGGYNYVSWYQQHPGKAPKLMIYDVSNRPSGVSNRFSGSKSGNTASLTISGLQAEDEADYYCSSYTSSSTPVVFGGGTKVTVL
B17: ADI-14395 (antibody, V domains shown)
VH: EVQLVESGGGVVQPGRSLRLSCAASGFTFSSYAMHWVRQAPGKGLEWVAVISYDGSNKYYADSVKGRFTISRDNSKNTLYLQMNSLRAEDTAVYYCARDDTYYYDSSGYSAPFDYWGQGTLVTVSS
VL: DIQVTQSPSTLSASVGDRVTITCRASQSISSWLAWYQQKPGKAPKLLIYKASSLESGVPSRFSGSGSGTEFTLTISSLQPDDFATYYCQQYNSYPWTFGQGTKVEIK
notes: also called Ab 62
B18: ADI-14397 (antibody, V domains shown)
VH: B17 VH with S107N
VL: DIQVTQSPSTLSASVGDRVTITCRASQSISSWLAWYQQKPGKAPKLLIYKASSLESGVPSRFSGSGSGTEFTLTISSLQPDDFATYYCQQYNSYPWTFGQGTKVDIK
notes: also called Ab 64
B19: ADI-14579 (antibody, V domains shown)
VH: QVQLVQSGAEVKKPGESLKISCKVSGYSFTSYWIGWVRQMPGKGLEWMGIIYPGDSDTRYSPSFQGQVTISADKSITTAYLQWSSLKASDTAMYYCARPAHSSSWYGAFDLWGQGTTVTVSS
VL: DIQMTQSPSSLSASVGDRVTITCRASQGISNYLAWYQQKPGKVPKLLIYAASTLQSGVPSRFSGSGSGTDFTLTISSLQPEDVATYYCQKYNSAPLTFGGGTKVEIK
B20: ADI-21031 (antibody, V domains shown)
VH: EVQLVESGPGLVKPSQTLSLTCTVSGGSISNSNYFWSWIRQPAGKGLEWIGRVHSSGTTSYNPSLKSRITISVDASESQFSLNLTSVTAADTAIYYCARDSSDWGLGWYFDLWGRGTLVTVSS
VL: ETTLTQSPATLSLSPGERATLSCRASQSVTFYLAWYQHKPGQAPRLLIFDASKRATGIPARFSGSGSGTDFTLTISSLEPEDFALYYCQQRSDWPQTFGQGTKVDIK
B21: ADI-14584 (antibody, V domains shown)
VH: QVQLVQSGAEVKKPGASVKVSCKASGFTFTNYGTSYGITWVRQAPGQGLEWMGWINTSNGNPNYAQKLQGRVTMTADTSTSTAYMELRSLISDDTAVYYCARGHRMVRGVVPTGYYGLDVWGQGTTVTVSS
VL: DIQLTQSPSSLSASVGDRVTITCRASQSISSYLNWYQQKPGKAPKLLIFAASNLQSGVPSRFSGSGSGTDFTLTISSLQPEDFATYYCQQSYITPWTFGQGTKVEIK
notes: also called Ab 113

Biological target: T1, RSV postfusion F (postF), subtype A (respiratory syncytial virus subtype A, UniProt P03420 26-513)
T1 construct: also called Postfusion subtype A; F deltaFP
Test: BLI

Does B1 bind?
Result: no binding

Does B2 bind?
Result: no binding

Does B3 bind?
Result: no binding

Does B4 bind?
Result: no binding

Does B5 bind?
Result: no binding

Does B6 bind?
Result: no binding

Does B7 bind?
Result: no binding

Biological target: T2, RSV prefusion F (preF), subtype B (respiratory syncytial virus subtype B)
T2 construct: also called Prefusion subtype B
Test: BLI, IgG

Which Kd does the source give for B1 here?
Its Kd is 44.2 nM.

Which Kd does the source give for B2 here?
Its Kd is 22.6 nM.

B3 was tested. Which Kd did it give?
The Kd was 37.7 nM.

B4 was tested. Which Kd did it give?
The Kd was 35.7 nM.

For B5, which Kd is on record?
Its Kd is 33.3 nM.

Which Kd does the source give for B6 here?
The Kd was 18 nM.

With B7 as the binder, how does the Kd read?
Its Kd is 72.5 nM.

Biological target: RSV prefusion F (preF), subtype A (respiratory syncytial virus, subtype A, UniProt P03420 26-513)
Test: BLI, IgG

For B8, which Kd is on record?
Its Kd is 2.69 nM.

How did the Kd turn out when B9 was run?
The Kd was 0.426 nM.

Which Kd does the source give for B10 here?
The Kd was 0.111 nM.

B11 was tested. Which Kd did it give?
Its Kd is 0.0894 nM.

With B12 as the binder, how does the Kd read?
The Kd was 4.88 nM.

How did the Kd turn out when B13 was run?
Its Kd is 11.5 nM.

B14 was tested. Which Kd did it give?
Its Kd is 10.3 nM.

How did the Kd turn out when B15 was run?
The Kd was 0.121 nM.

With B16 as the binder, how does the Kd read?
The Kd was 11.2 nM.

With B17 as the binder, how does the Kd read?
Its Kd is 24.9 nM.

For B18, which Kd is on record?
The Kd was 28.5 nM.

With B19 as the binder, how does the Kd read?
Its Kd is 7.54 nM.

Which Kd does the source give for B20 here?
Its Kd is 1.07 nM.

Biological target: T3, RSV postfusion F (postF), subtype A (respiratory syncytial virus, subtype A, UniProt P03420 26-513)
T3 construct: also called F ΔFP; Postfusion subtype A
Test: BLI, IgG

Does B8 bind?
Result: no binding

Does B21 bind?
Result: no binding

Does B13 bind?
Result: no binding

Does B17 bind?
Result: no binding

Does B18 bind?
Result: no binding

Biological target: RSV prefusion F (preF), subtype B (respiratory syncytial virus, subtype B)
Test: BLI, IgG

For B9, which Kd is on record?
Its Kd is 0.349 nM.

For B21, which Kd is on record?
The Kd was 0.476 nM.

For B11, which Kd is on record?
Its Kd is 0.109 nM.

B12 was tested. Which Kd did it give?
The Kd was 19.5 nM.

With B15 as the binder, how does the Kd read?
The Kd was 0.533 nM.

B19 was tested. Which Kd did it give?
The Kd was 3.73 nM.

How did the Kd turn out when B20 was run?
The Kd was 1.5 nM.
